Experimental data published in the supplement of paper PMC9876800.

Test system: peptide library, one residue held at a place counted from the S/T acceptor
Assay: relative phosphorylation of the sub-library (ratio to the mean residue at this position); higher = residue favoured
Conditions: human
Outline: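 In 384-well plates, purified recombinant kinases (human or orthologue constructs) were incubated for 90 min under kinase-specific conditions with 50 μM biotinylated degenerate peptide sub-libraries and 50 μM ATP spiked with γ-32P-ATP. Each sub-library fixed a single residue at one position around a central Ser/Thr. Relative sub-library phosphorylation, measured by phosphorimaging and densitometry of streptavidin membrane spots, is given as a ratio to the mean residue at that position.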

Chain of PRKCQ, construct: Full length (Q04759 whole entry, looked up): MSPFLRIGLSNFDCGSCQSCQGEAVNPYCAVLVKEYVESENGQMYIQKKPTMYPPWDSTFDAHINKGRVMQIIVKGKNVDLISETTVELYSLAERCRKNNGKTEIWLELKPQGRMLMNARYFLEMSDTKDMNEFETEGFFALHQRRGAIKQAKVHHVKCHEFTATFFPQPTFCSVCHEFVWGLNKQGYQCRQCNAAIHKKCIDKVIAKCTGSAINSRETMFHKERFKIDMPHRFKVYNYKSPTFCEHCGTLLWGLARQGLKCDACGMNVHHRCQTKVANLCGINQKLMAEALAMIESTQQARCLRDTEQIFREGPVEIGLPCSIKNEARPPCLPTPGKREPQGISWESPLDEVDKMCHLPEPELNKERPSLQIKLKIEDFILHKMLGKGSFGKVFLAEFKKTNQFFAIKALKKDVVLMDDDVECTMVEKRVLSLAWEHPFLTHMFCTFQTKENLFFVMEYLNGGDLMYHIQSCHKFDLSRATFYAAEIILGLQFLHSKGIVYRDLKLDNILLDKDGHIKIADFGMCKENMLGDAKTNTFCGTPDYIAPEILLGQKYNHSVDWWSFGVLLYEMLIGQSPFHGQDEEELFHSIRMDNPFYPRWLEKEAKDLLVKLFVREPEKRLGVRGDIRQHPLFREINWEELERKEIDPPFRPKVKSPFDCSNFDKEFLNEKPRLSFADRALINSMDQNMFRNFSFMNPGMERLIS
Chain of PASK, construct: aa949-1323 (Q96RG2 949-1323, looked up): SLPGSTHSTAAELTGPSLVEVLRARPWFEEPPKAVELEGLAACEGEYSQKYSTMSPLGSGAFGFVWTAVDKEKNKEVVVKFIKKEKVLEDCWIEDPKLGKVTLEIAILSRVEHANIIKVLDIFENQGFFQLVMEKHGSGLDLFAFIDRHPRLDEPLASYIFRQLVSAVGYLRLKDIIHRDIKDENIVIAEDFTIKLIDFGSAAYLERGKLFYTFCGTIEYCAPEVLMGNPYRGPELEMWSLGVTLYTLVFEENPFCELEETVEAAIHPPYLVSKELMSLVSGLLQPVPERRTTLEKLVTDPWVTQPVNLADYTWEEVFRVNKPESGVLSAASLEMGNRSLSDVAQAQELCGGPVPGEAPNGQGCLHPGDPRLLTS

PASK, construct: aa949-1323 (from UniProt Q96RG2)
relative phosphorylation
Conditions | at +1 | at +2 | at +3 | at +4 | at -1 | at -2 | at -3 | at -4 | at -5
A fixed | 0.999 | 0.848 | 0.766 | 0.739 | 0.615 | 1.36 | 0.758 | 0.939 | 0.757
D fixed | 1.04 | 2.11 | 1.66 | 1.65 | 1.2 | 0.778 | 0.63 | 1 | 0.896
E fixed | 1.4 | 1.34 | 1.35 | 1.43 | 0.919 | 0.762 | 0.711 | 1.55 | 0.776
F fixed | 1.07 | 0.829 | 1.14 | 0.825 | 0.491 | 0.814 | 0.565 | 0.779 | 0.72
G fixed | 1.11 | 0.967 | 0.808 | 1.03 | 0.746 | 1.19 | 0.864 | 0.804 | 0.811
H fixed | 1.21 | 1.25 | 1.14 | 1.12 | 0.903 | 1.33 | 0.927 | 1.04 | 2.98
I fixed | 0.665 | 0.664 | 0.583 | 0.748 | 0.384 | 0.493 | 0.425 | 0.663 | 0.742
K fixed | 0.944 | 0.698 | 0.956 | 0.853 | 2.22 | 1.42 | 1.34 | 1.39 | 1.33
L fixed | 0.665 | 0.65 | 0.784 | 0.732 | 0.609 | 0.746 | 0.484 | 0.723 | 1.03
M fixed | 0.914 | 0.758 | 0.823 | 0.764 | 0.665 | 0.774 | 0.55 | 0.829 | 0.909
N fixed | 1.09 | 1.49 | 1.03 | 1.08 | 1.59 | 1.16 | 0.623 | 0.995 | 0.884
P fixed | 0.623 | 0.796 | 1.2 | 1.41 | 2.89 | 1.54 | 1.83 | 1.3 | 0.66
Q fixed | 0.932 | 1.14 | 0.996 | 1.07 | 1.07 | 1.08 | 0.764 | 1.05 | 0.788
R fixed | 0.787 | 0.825 | 0.888 | 0.65 | 0.954 | 1.38 | 4.8 | 1.42 | 1.39
V fixed | 0.854 | 0.71 | 0.591 | 0.668 | 0.447 | 0.638 | 0.433 | 0.68 | 0.625
W fixed | 1.26 | 0.953 | 1.25 | 1.05 | 0.53 | 0.704 | 0.664 | 0.944 | 0.927
Y fixed | 1.45 | 0.966 | 1.04 | 1.18 | 0.774 | 0.835 | 0.635 | 0.9 | 0.775
pThr fixed | 3.06 | 2.97 | 2.92 | 2.7 | 1.02 | 1.43 | 1.04 | 1.25 | 1.11
pTyr fixed | 2.5 | 2.53 | 3.07 | 2.25 | 1.58 | 1.41 | 1.28 | 1.98 | 1.59

PRKCQ, construct: Full length (from UniProt Q04759)
relative phosphorylation
Conditions | at +1 | at +2 | at +3 | at +4 | at -1 | at -2 | at -3 | at -4 | at -5
A fixed | 0.568 | 0.491 | 0.841 | 0.988 | 1.06 | 0.884 | 0.837 | 1.17 | 1.13
D fixed | 0.139 | 0.187 | 0.373 | 0.434 | 0.378 | 0.333 | 0.326 | 0.642 | 0.786
E fixed | 0.184 | 0.14 | 0.362 | 0.385 | 0.315 | 0.305 | 0.344 | 0.725 | 0.58
F fixed | 1.93 | 0.626 | 0.883 | 0.614 | 0.853 | 0.689 | 0.694 | 0.748 | 0.981
G fixed | 0.411 | 0.376 | 0.887 | 1.1 | 1.6 | 1.22 | 0.871 | 1.41 | 1.21
H fixed | 0.815 | 1.45 | 1.33 | 1.6 | 1.08 | 1.15 | 1.33 | 1.2 | 1.14
I fixed | 1.46 | 0.612 | 0.762 | 0.629 | 0.309 | 0.348 | 0.329 | 0.522 | 0.769
K fixed | 1.63 | 3.19 | 1.91 | 2.4 | 1.89 | 1.89 | 1.72 | 1.51 | 1.58
L fixed | 1.16 | 0.553 | 0.969 | 0.652 | 0.64 | 0.472 | 0.462 | 0.553 | 0.857
M fixed | 1.68 | 0.819 | 0.85 | 0.721 | 0.861 | 0.612 | 0.583 | 0.784 | 0.682
N fixed | 0.441 | 0.873 | 0.782 | 1.01 | 1.21 | 1.11 | 0.915 | 1.05 | 0.899
P fixed | 0.185 | 0.274 | 0.557 | 1.23 | 0.941 | 0.462 | 0.706 | 1.1 | 1.02
Q fixed | 0.952 | 0.748 | 0.929 | 0.944 | 1.09 | 1.22 | 0.982 | 0.996 | 0.862
R fixed | 1.83 | 3.66 | 2.14 | 1.88 | 2.29 | 4.01 | 4.83 | 1.95 | 1.88
V fixed | 1.35 | 0.598 | 0.776 | 0.688 | 0.539 | 0.47 | 0.435 | 0.669 | 0.775
W fixed | 1.07 | 0.859 | 1.31 | 0.884 | 0.728 | 1.01 | 0.814 | 1.22 | 1.12
Y fixed | 1.21 | 1.54 | 1.33 | 0.827 | 1.2 | 0.822 | 0.816 | 0.757 | 0.734
pThr fixed | 0.427 | 0.275 | 0.349 | 0.36 | 0.266 | 0.481 | 0.571 | 0.689 | 0.572
pTyr fixed | 0.351 | 0.255 | 0.379 | 0.263 | 0.543 | 0.497 | 0.566 | 0.574 | 0.645
